Measured values from the nanobody polyreactivity screen of Harvey et al. (2022).

Assay: yeast display, Sf9 membrane polyspecificity reagent, FACS + sequencing; frameworks hold sequencing errors
Summary of the method: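 In a synthetic yeast display library (Saccharomyces cerevisiae BJ5465), nanobody expression was induced with galactose for 36–48 hours. FACS gates were set low and high (top ~1%) using anti-HA fluorescence for expression and streptavidin fluorescence for binding of the Sf9 membrane reagent. Each polyreactivity label is drawn from the gate of origin.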

| Sequence | polyreactivity (PSR sort gate) |
| --- | --- |
| QVQLVESGGGLVQAGGSLRLSCADSGLTFIYYAMGWYRQAHGKERELVAAISSSGGRTYYADSVKGRFTISRDNAKNTVYLQMNSLKPEDTAVYYCATRYWTQSSSFDYWGQGTQVTVSS | high polyreactivity |
| QVQLVESGGGLVQAGGSLRLSCADSGLTFWVYAMGWYRQAPGKERELVAAISSGGSTNYADSVKGRFTISRDNAKNTVYVQMNSLKPEDTAVYYCAAEWVYWQDELWDSPGLVEFDYWGQGTQVTVSS | low polyreactivity |
| QVQLVESGGGLVQAGGSLRLSCADSGNIFSTYAMGWYRQEPGKERELVASISENGGSTYYADSVKGRFTISRDNAKNTVYLQMNCLKPEDTAVYYCAIGPLYSLFFQHDAPYRYGYWGQGTQVTVSS | low polyreactivity |
| QVQLVESGGGLVQAGGSLRLSCADSGRIFGYYTMGWSRQAPGKERELVAAITSSGSSTYYADSVKGRFTISRDNAKNTVYLQMNSLKPEDTAVYYCNARAYWRNEYWGQGTQVTVSS | high polyreactivity |
| QVQLVESGGGLVQAGGSLRLSCADSGRIFQPNVMGWYRQAPGKERELVAAIRSGSSTYYADSVKGRFTISRDNAKNTVYLQMNSLKPEDTAVYYCATRRAGRGYDYWGQGTQVTVSS | high polyreactivity |
| QVQLVESGGGLVQAGGSLRLSCADSGRIFRGNTMGWYRQAPGKERELVATINGRGGSTYYADSVKGRFTISRDNAKNTLYLQMNSLKPEDTAVYYCAARARTTRSATYDYWGQGTQVTVSS | high polyreactivity |
| QVQLVESGGGLVQAGGSLRLSCADSGRIFTSYVMGWYRPAPGQERELVAAITRSGGSTYYADSVKGRFTNSRDNAKNTVYLQMNSLKPEDTAVYYCIALTRRQKGGEGGGYWGQGTQVTVSS | high polyreactivity |
| QVQLVESGGGLVQAGGSLRLSCADSGRIFYRYAMGWYRQAPGKERELVAAITNSGGRTYYADSVKGRFTISRDNAKNTVYLQMNSVKPEDSAVYYCNAVKTSEYDYWGQGTQVTVSS | high polyreactivity |
| QVQLVESGGGLVQAGGSLRLSCADSGRIFYYYTMGWYRQAPGKERELVARINSSGSTNLRRLCEGALHNFTRQCEEYRLFTDEQPETGRYRVYYCNADTKRSSREYDYWGQGTQVTVSS | low polyreactivity |
| QVQLVESGGGLVQAGGSLRLSCADSGRILIGYTRGWYRQAPGKERELVARINYSGGSTYYADSVKGRFTISRDNAKNTVYLQMNSLKPEDTAVYYCAADVRRGYYTWPPRRVYYWGQGTQVTVSS | high polyreactivity |
| QVQLVESGGGLVQAGGSLRLSCADSGRTFGVYTMGWYRQAPGKERELVAAISGSGGSTYYADSVKGRFTISRDNAKNTVYLQMNSLKPEDTAVYYCNADQNVDVFYRYRLYDSWGQGTQVTVSS | high polyreactivity |
| QVQLVESGGGLVQAGGSLRLSCADSGRTFSYNLMGWYSQAPGKESEVVAAISRRGGSTYYADSVKGRFTISRDNAKNTVYLQMNSLKPEDTAVYYCNAVSPSPGGGYWGQGSQVTVSS | high polyreactivity |
| QVQLVESGGGLVQAGGSLRLSCADSGRTFVTTAMGWYRQAPGKERELVAAIDGGGDRTYYADTVKVRFTISRDYAKYTVYLQMNSLKPEDSAVYYCNKDRGTLYGDMDSWGQGTQVTVSS | low polyreactivity |
| QVQLVESGGGLVQAGGSLRLSCADSGRTFYPNAMGWYRQAPGKERELVARIRQSGTSTYYADSVKGRFTISRDNAKNTVYLQMNSLKPEDTAVYYCAARYAVGYPPYRYYYWGQGTQVTVSS | high polyreactivity |
| QVQLVESGGGLVQAGGSLRLSCADSGRTFYPYVMGWYRQAPGKERELVADISWSGGRTYYADSVKGRFTISRDNAKNTVYLQMYSLKPEDTAVYYCCAGYRRRYNYWGQGTQVTVSS | high polyreactivity |
| QVQLVESGGGLVQAGGSLRLSCADSGRTFYRNAMGWYRQAPGKERELVAAITWSAGSTYYADSVKGRFTISRDNAKNTVYLQMNSLKPEDSAVYYCAKYPSKSYVPGDYWGQGTQVTVSS | low polyreactivity |
| QVQLVESGGGLVQAGGSLRLSCADSGRTLGYYAKGWYRQAPGKEREVVAAITSGGRTNYADSVKGRFTISRDNAKNTVYLQMNSLKPEDTAVYYCAAARYLSGGYEKYDYWGQGTQVTVSS | low polyreactivity |
| QVQLVESGGGLVQAGGSLRLSCADSGSIFDIYAMGWYRQAPGKERELVADISWSGGSTYYADSVKGRFTISRDNAKNTVYLQMNSLKPEDTAVYYCAADSSRRIGEDYWGQGTQVTVSS | low polyreactivity |
| QVQLVESGGGLVQAGGSLRLSCADSGSIFGSYATGWYRQAPGKERELVAAITYSGTSTYYADSVKGRFTISRDTAKNTVYLQMNRLKPEDTAVYYCAKRHWFQYRRPDLGRFDYWGQGTQVTVSS | high polyreactivity |
| QVQLVESGGGLVQAGGSLRLSCADSGSIFRIYAMGWYSQAPGKERELVAAITGRGGSTYYADSVKGRFTISRDNAKNTVYLQMNSLKPEDTAVYYCAAEERYAYRYDYWGQGTQVTVSS | high polyreactivity |
| QVQLVESGGGLVQAGGSLRLSCADSGSNFRTYVMGWYRQAPGNERDMVAAITNGISTNYADSVKGRFTISRDNAKNSVYLQMISMKPEDTAVYYCAAGFRSTYYTFRFGYWGQGTQVTVST | high polyreactivity |
| QVQLVESGGGLVQAGGSLRLSCADSGSTFAGNAMGWYRQAPGKERELVAAIVSSTGSTYYADSVKGRFTISRDNAKNTVYLQMNSLKPEDTAVYYCNKTSFLVKLDYWGQGTQVTVSS | low polyreactivity |

| Sequence | polyreactivity (PSR sort gate) |
| --- | --- |
| QVQLVESGGGLVQAGGSLRLSCADSGSTFGKNAMGWYRQAPGKDRELVAAITRRGVSTNYADSEKGRFTISRDNAKNTVYLQMNSLKPEDTAVYYCARGSELGYYAWVYYLGQGTQVTVSS | high polyreactivity |
| QVQLVESGGGLVQAGGSLRLSCADSGSTFRRNVMGWYRQAPGKERELVASIRSGGTTNYADSVKGRFTISRDNAKNTVYLQMNSLKPEDTAVYYCAAARSRGYYRASAVVLYGYWGQGTQVTVSS | high polyreactivity |
| QVQLVESGGGLVQAGGSLRLSCADSGSTFRYYVMGWYRQAPGKERELVARITSAASTNYADSVKGRFTISRDNAKNTVYLQMNSLKPEDTAVYYCAARKYGSRYRLKYDYWGQGTQVTVSS | high polyreactivity |
| QVQLVESGGGLVQAGGSLRLSCADSGSTFVNYAMGWYRQAPGKERELVAAISSTGGSTYYADSVKGRFTISRDNAKNTVYLQMNSLKPEDTAVYYCAAYRYFKMGYWGQGTQVTVSS | high polyreactivity |
| QVQLVESGGGLVQAGGSLRLSCADSGSTFWPYAMGWYRQAPGKESEVVAAISSSGGSTYYADSVQGRFTISRDNAKNTVYLQMNSLKPEDTAVYYCNKDYHRPFGGGSKGDYWGQRTQVTVSS | low polyreactivity |
| QVQLVESGGGLVQAGGSLRLSCADSGTTVIFNAMGWYRQAPGKERELVGAISWRLGRTYYAYSVKGRFTISRDNAKNTVYLQMNSLTPEDTAVYYCARDYSRHKGDYWGQGTQVTVSS | low polyreactivity |
| QVQLVESGGGLVQAGGSLRLSCADSGYIFEVYAMGWYRPAPGKERELVAAIDYSDGTTYYADSVKGRFTISRDNAKNTVYLQMNSLKPEDTAVYYCAADFPGQHYDYWGQGTQVTVSS | low polyreactivity |
| QVQLVESGGGLVQAGGSLRLSCADSVFIFYLNAMGWYRQAPRKERELVATITNRGGSTYFADSVKGRFTISRDNAKNTVYLQMNSLKPEDTAVYYCAARTRERYSKPYFYRRFGYWGQGTQVTVSS | low polyreactivity |
| QVQLVESGGGLVQAGGSLRLSCADTGRIFTRYAMGWYRQAPGKERELVASIRSGGSTYYADSVKGRFTISRDNAKNTVYLQMNSLKPEDTAVYFCAKGTFDLHYRKRYNYWGQGTQVTVSS | low polyreactivity |
| QVQLVESGGGLVQAGGSLRLSCADYGYIFVGNAMGCYRQAPGKDRELVAAINSGGSTNYADSVKGRFTISRDNEKNTVYLQMNSLKPEDTAVYYCNAEAPRYNYGRMDYLGQGTQVTVSS | low polyreactivity |
| QVQLVESGGGLVQAGGSLRLSCAGSGFIFTDYAMGWYRQAPGKERELVATISWSGSSTYYADSVKGRFTISRDNAKNTVYLQMNSLKPEDTAVYYCAAEFWYTYPYLVDYWGQGTQVTVSS | low polyreactivity |
| QVQLVESGGGLVQAGGSLRLSCAGSGFILGYNAMGWYRQAPGKERELVAVIDSIGDGTYYADSVKGRFTISRDNAKNTVYLQMISLKPEDTAVYYCDVDDYYEMDYWGQGTQVTVSS | low polyreactivity |
| QVQLVESGGGLVQAGGSLRLSCAGSGFTFKWYAMGWYRQAPGKERELVAGISRGGTTNYADSVKGRFTISRDNAKNTVYLQLNSLKPEDTAVYYCAKTSYVSYRGLTYYYWGQGTQVTVSS | high polyreactivity |
| QVQLVESGGGLVQAGGSLRLSCAGSGIIFAWYAMGWYRQAPGKERELVAAITSGGGSTYYADSVKGRFTISRDNAKNTVYLQMNSLKPEDTAVYYCAADYQTIGWGYDYWGQGTQVTVSS | low polyreactivity |
| QVQLVESGGGLVQAGGSLRLSCAGSGIIFFPYAMGWYRPAPGKERELVASINISDSSTYYADSVKGRFTISRDNAKNTVYLQMNSLKPQDTAVYYCAADNRGDSWYWHGYWGQGTQVTVSS | low polyreactivity |
| QVQLVESGGGLVQAGGSLRLSCAGSGNIFVFYVMGWYRQAAGKERELVASISSTGNTYYADSVKGRFTISRDNAKNTVYLQMNSLKPEDTAVYYGAADSHQNVSGWLRWPRMDYWGQGTQVTVSS | low polyreactivity |
| QVQLVESGGGLVQAGGSLRLSCAGSGSIFGRYVVGWYRLAPGKEREFVAAITYSGSSTYYADSVKWRFTISRDNAKNTVYVQINSLKPEDTAVYYCNTYPRSYYWMGYWGQGTQVTVSS | high polyreactivity |
| QVQLVESGGGLVQAGGSLRLSCAGSGSIFPFYVMGWYRQAPGKEREFVATISSRGGSTYYADSVKGRFTISRDNAKNTVYLQMNSLKPEDTAVYYCAAGWYRTDWGQRLHTYYYWGQGTQVTVSS | high polyreactivity |
| QVQLVESGGGLVQAGGSLRLSCAGSGSNFDVYTMGWYRKAPGKERELVAAINTGGGSTYYADSVKGRFTISRDNAMNTVYLQMNSLKPEDTAVYYCAASVYHYGPLYYWRQGTQVTVSS | low polyreactivity |
| QVQLVESGGGLVQAGGSLRLSCAGSGSTFDGNAMGWYRQAPGKDRELVAAITSGGSTNYADSVKGRFTISRDNAKNTVYLQMNSLKPEDTAVYYCAADTVSFSILYDYWGQGTQVTVSS | low polyreactivity |
| QVQLVESGGGLVQAGGSLRLSCAGSGSTFWVNDMGWSRQAPGKERELVASITISTGATYYADSVKGRFTISRDTAKNTVYVQINSLKPEDTAVYYCNVEFENSGWKSFDYWGQGTQVTVSS | low polyreactivity |
